In the Human Domainome abundance scans (Beltran et al. 2025):
± gives the uncertainty stated by the source.

B1: FERM and PDZ domain-containing protein 4, residues 75 to 154; numbered along this chain, Q14CM0 (parent)
chain: APRKVEMRRDPVLGFGFVAGSEKPVVVRSVTPGGPSEGKLIPGDQIVMINDEPVSAAPRERVIDLVRSCKESILLTVIQP

Variants of: B1
Experiment: abundance fitness (aPCA) (normalised: wild type 0, dead -1); higher = more abundant; growth selection in yeast, the domain comes from the species named
Details: Homo sapiens

R61F and R61E are within error of each other in abundance fitness: -0.044 ± 0.034 for the first, -0.071 ± 0.035 for the second.

First: R61K
Second: R61G
The abundance fitness of the first is higher: -0.01 ± 0.032 for the first, -0.134 ± 0.029 for the second.

R61I and T76C are within error of each other in abundance fitness: -0.107 ± 0.033 for the first, -0.088 ± 0.047 for the second.

Going from T76A to L65M, the abundance fitness rises from -0.132 ± 0.033 to -0.002 ± 0.031.

Going from L65H to L65V, the abundance fitness rises from -0.205 ± 0.047 to -0.105 ± 0.023.

First: L65D
Second: L65S
The abundance fitness of the first is lower: -0.462 ± 0.04 for the first, -0.178 ± 0.024 for the second.

Going from L65P to L65C, the abundance fitness rises from -0.841 ± 0.055 to -0.158 ± 0.034.

Compared with L65F, L65G is lower in abundance fitness: -0.109 ± 0.041 for the first, -0.377 ± 0.022 for the second.

First: L65R
Second: L65W
The abundance fitness of the first is higher: -0.093 ± 0.02 for the first, -0.244 ± 0.025 for the second.

L65I and L65K are within error of each other in abundance fitness: -0.052 ± 0.041 for the first, -0.022 ± 0.029 for the second.

L65Y and L65T are within error of each other in abundance fitness: -0.076 ± 0.039 for the first, -0.114 ± 0.028 for the second.

Compared with L65N, L65Q is higher in abundance fitness: -0.349 ± 0.043 for the first, -0.094 ± 0.03 for the second.

Compared with L65A, L65E is lower in abundance fitness: -0.056 ± 0.024 for the first, -0.249 ± 0.028 for the second.

Going from K70L to K70C, the abundance fitness rises from -0.306 ± 0.024 to -0.115 ± 0.033.

First: K70G
Second: K70I
The abundance fitness of the first is higher: -0.093 ± 0.026 for the first, -0.311 ± 0.033 for the second.

K70Q and K70D are within error of each other in abundance fitness: -0.078 ± 0.031 for the first, -0.055 ± 0.038 for the second.

K70Y and K70V are within error of each other in abundance fitness: -0.153 ± 0.029 for the first, -0.168 ± 0.026 for the second.

First: K70W
Second: K70P
The abundance fitness of the first is lower: -0.323 ± 0.034 for the first, -0.052 ± 0.027 for the second.

Going from K70M to K70A, the abundance fitness rises from -0.17 ± 0.029 to -0.1 ± 0.027.

K70S and K70E are within error of each other in abundance fitness: -0.054 ± 0.024 for the first, -0.061 ± 0.033 for the second.

K70H and K70N are within error of each other in abundance fitness: -0.096 ± 0.032 for the first, -0.076 ± 0.03 for the second.

Going from K70R to K70F, the abundance fitness falls from -0.081 ± 0.024 to -0.256 ± 0.034.

First: K70T
Second: E60G
The abundance fitness of the first is lower: -0.098 ± 0.026 for the first, -0.025 ± 0.019 for the second.

Going from E60W to E60I, the abundance fitness falls from -0.112 ± 0.024 to -0.21 ± 0.04.

Going from E60V to E60C, the abundance fitness rises from -0.131 ± 0.022 to -0.059 ± 0.028.

E60T and E60N are within error of each other in abundance fitness: -0.03 ± 0.026 for the first, -0.028 ± 0.038 for the second.

E60H and E60D are within error of each other in abundance fitness: -0.038 ± 0.037 for the first, -0.049 ± 0.032 for the second.

E60M and E60K are within error of each other in abundance fitness: -0.048 ± 0.03 for the first, -0.015 ± 0.029 for the second.

First: E60S
Second: E60Y
The abundance fitness of the first is higher: -0.005 ± 0.024 for the first, -0.178 ± 0.036 for the second.

Going from E60F to E60P, the abundance fitness rises from -0.183 ± 0.035 to -0.077 ± 0.029.

First: E60R
Second: E60L
The abundance fitness of the first is higher: -0.041 ± 0.02 for the first, -0.137 ± 0.022 for the second.

R67Y and R67C are within error of each other in abundance fitness: -0.06 ± 0.036 for the first, -0.055 ± 0.029 for the second.

R67N and R67D are within error of each other in abundance fitness: 0.017 ± 0.033 for the first, -0.018 ± 0.032 for the second.

R67G and R67M are within error of each other in abundance fitness: -0.038 ± 0.019 for the first, -0.064 ± 0.025 for the second.

Compared with R67L, R67A is higher in abundance fitness: -0.105 ± 0.022 for the first, -0.01 ± 0.022 for the second.

First: R67S
Second: R67W
The abundance fitness of the first is higher: -0.013 ± 0.023 for the first, -0.182 ± 0.024 for the second.

First: R67P
Second: R67Q
The abundance fitness of the first is lower: -0.808 ± 0.044 for the first, 0.001 ± 0.028 for the second.

First: R67T
Second: R67I
The abundance fitness of the first is higher: -0.018 ± 0.026 for the first, -0.159 ± 0.04 for the second.

First: R67V
Second: R67K
The abundance fitness of the first is lower: -0.079 ± 0.021 for the first, 0.002 ± 0.027 for the second.

First: R67E
Second: R67F
The abundance fitness of the first is higher: 0.005 ± 0.024 for the first, -0.095 ± 0.036 for the second.

V62Q and V62N are within error of each other in abundance fitness: -0.745 ± 0.042 for the first, -0.738 ± 0.04 for the second.

Going from V62K to V62S, the abundance fitness rises from -1.03 ± 0.065 to -0.666 ± 0.027.

Compared with V62W, V62A is higher in abundance fitness: -0.4 ± 0.034 for the first, -0.32 ± 0.029 for the second.

Compared with V62M, V62L is higher in abundance fitness: -0.383 ± 0.031 for the first, -0.199 ± 0.022 for the second.

Going from V62T to V62F, the abundance fitness rises from -0.25 ± 0.025 to -0.17 ± 0.027.

V62D and V62P are within error of each other in abundance fitness: -0.793 ± 0.053 for the first, -0.841 ± 0.043 for the second.

Compared with V62H, V62R is lower in abundance fitness: -0.711 ± 0.039 for the first, -0.917 ± 0.037 for the second.

Compared with V62G, V62Y is higher in abundance fitness: -0.936 ± 0.046 for the first, -0.248 ± 0.03 for the second.

Compared with V62E, S72K is higher in abundance fitness: -0.86 ± 0.057 for the first, 0.009 ± 0.027 for the second.

First: S72N
Second: S72W
The abundance fitness of the first is higher: -0.028 ± 0.028 for the first, -0.234 ± 0.029 for the second.

First: S72T
Second: S72Y
The abundance fitness of the first is higher: -0.011 ± 0.026 for the first, -0.129 ± 0.029 for the second.

Going from S72M to S72H, the abundance fitness rises from -0.11 ± 0.028 to -0.015 ± 0.029.

S72D and S72R are within error of each other in abundance fitness: -0.014 ± 0.029 for the first, -0.019 ± 0.021 for the second.

Compared with S72Q, S72A is lower in abundance fitness: -0.004 ± 0.027 for the first, -0.072 ± 0.024 for the second.

Compared with S72C, S72I is lower in abundance fitness: -0.111 ± 0.032 for the first, -0.177 ± 0.029 for the second.

First: S72F
Second: S72P
The abundance fitness of the first is higher: -0.167 ± 0.028 for the first, -0.284 ± 0.028 for the second.

S72V and C69R are within error of each other in abundance fitness: -0.104 ± 0.023 for the first, -0.119 ± 0.022 for the second.

First: C69I
Second: C69E
The abundance fitness of the first is lower: -0.19 ± 0.03 for the first, -0.059 ± 0.029 for the second.

Compared with C69K, C69A is higher in abundance fitness: -0.089 ± 0.026 for the first, 0.004 ± 0.023 for the second.

Going from C69Q to C69F, the abundance fitness falls from -0.034 ± 0.027 to -0.159 ± 0.029.

First: C69P
Second: C69G
The abundance fitness of the first is lower: -0.378 ± 0.028 for the first, -0.209 ± 0.025 for the second.

First: C69S
Second: C69D
The abundance fitness of the first is higher: -0.025 ± 0.021 for the first, -0.323 ± 0.034 for the second.

First: C69N
Second: C69L
The abundance fitness of the first is higher: -0.056 ± 0.027 for the first, -0.236 ± 0.022 for the second.

Compared with C69W, C69M is higher in abundance fitness: -0.591 ± 0.034 for the first, -0.1 ± 0.028 for the second.

C69T and C69H are within error of each other in abundance fitness: -0.044 ± 0.023 for the first, -0.064 ± 0.028 for the second.

C69V and P58H are within error of each other in abundance fitness: -0.091 ± 0.023 for the first, -0.09 ± 0.035 for the second.

P58K and P58E are within error of each other in abundance fitness: -0.027 ± 0.032 for the first, -0.06 ± 0.026 for the second.

Compared with P58Q, P58W is lower in abundance fitness: -0.091 ± 0.029 for the first, -0.474 ± 0.029 for the second.

First: P58N
Second: P58F
The abundance fitness of the first is higher: -0.04 ± 0.037 for the first, -0.33 ± 0.039 for the second.

Going from P58L to P58A, the abundance fitness rises from -0.24 ± 0.024 to -0.067 ± 0.023.

Compared with P58D, P58M is lower in abundance fitness: -0.061 ± 0.032 for the first, -0.217 ± 0.03 for the second.

P58S and P58T are within error of each other in abundance fitness: 0.017 ± 0.025 for the first, -0.029 ± 0.027 for the second.

First: P58R
Second: P58I
The abundance fitness of the first is higher: -0.063 ± 0.02 for the first, -0.29 ± 0.04 for the second.

Going from P58Y to P58C, the abundance fitness rises from -0.25 ± 0.043 to -0.043 ± 0.029.

Compared with P58V, P58G is higher in abundance fitness: -0.167 ± 0.023 for the first, -0.014 ± 0.02 for the second.

R59V and R59S are within error of each other in abundance fitness: -0.051 ± 0.022 for the first, -0.06 ± 0.023 for the second.

First: R59D
Second: R59Q
The abundance fitness of the first is lower: -0.385 ± 0.036 for the first, 0.022 ± 0.028 for the second.

R59A and R59T are within error of each other in abundance fitness: -0.028 ± 0.023 for the first, -0.03 ± 0.026 for the second.

Going from R59L to R59E, the abundance fitness falls from 0.007 ± 0.022 to -0.05 ± 0.027.

R59P and R59W are the same in abundance fitness: -0.025 ± 0.026 for the first, -0.025 ± 0.024 for the second.

Going from R59H to R59Y, the abundance fitness rises from -0.059 ± 0.035 to 0.025 ± 0.035.

R59F and R59G are within error of each other in abundance fitness: 0.005 ± 0.035 for the first, -0.007 ± 0.02 for the second.

R59M and R59N are within error of each other in abundance fitness: -0.039 ± 0.028 for the first, -0.025 ± 0.038 for the second.

With R59C the abundance fitness was -0.03 ± 0.031.
